Source: publication PMC9482650, “Quantitative fragmentomics allow affinity mapping of interactomes” (Nature Communications, 2022)

T1: ARHGAP21, Q5T5U3
T1 sequence (Q5T5U3 45-169, limits assumed, looked up): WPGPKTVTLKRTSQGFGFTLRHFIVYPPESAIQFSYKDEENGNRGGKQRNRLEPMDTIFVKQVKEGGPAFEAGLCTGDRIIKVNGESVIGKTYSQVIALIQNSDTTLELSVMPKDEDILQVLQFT

T2: DFNB31_2, Q9P202
T2 sequence (Q9P202 274-371, limits assumed, looked up): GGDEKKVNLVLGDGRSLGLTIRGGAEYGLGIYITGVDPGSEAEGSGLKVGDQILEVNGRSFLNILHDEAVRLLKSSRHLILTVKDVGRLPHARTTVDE

T3: DFNB31_3, Q9P202
T3 sequence (Q9P202 811-907, limits assumed, looked up): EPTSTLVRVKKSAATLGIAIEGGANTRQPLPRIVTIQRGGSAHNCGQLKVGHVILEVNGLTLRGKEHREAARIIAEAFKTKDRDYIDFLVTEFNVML

T4: DLG3_2, Q92796
T4 sequence (Q92796 221-321, limits assumed, looked up): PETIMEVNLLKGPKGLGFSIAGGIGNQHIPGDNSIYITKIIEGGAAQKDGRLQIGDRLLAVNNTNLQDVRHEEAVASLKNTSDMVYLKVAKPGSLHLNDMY

T5: GRIP1_4, Q9Y3R0
T5 sequence (Q9Y3R0 467-571, limits assumed, looked up): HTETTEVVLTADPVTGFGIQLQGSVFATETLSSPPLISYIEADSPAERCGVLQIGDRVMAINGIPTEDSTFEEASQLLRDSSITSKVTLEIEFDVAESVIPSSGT

T6: MPDZ_10, O75970
T6 sequence (O75970 1624-1722, limits assumed, looked up): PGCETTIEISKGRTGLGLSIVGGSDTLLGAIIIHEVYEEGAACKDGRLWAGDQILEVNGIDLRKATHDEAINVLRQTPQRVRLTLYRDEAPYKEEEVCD

T7: MPDZ_12, O75970
T7 sequence (O75970 1857-1958, limits assumed, looked up): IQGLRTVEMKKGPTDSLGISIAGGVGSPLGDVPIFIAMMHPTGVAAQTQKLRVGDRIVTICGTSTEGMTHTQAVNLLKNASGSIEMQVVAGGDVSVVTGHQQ

T8: MPDZ_5, O75970
T8 sequence (O75970 695-796, limits assumed, looked up): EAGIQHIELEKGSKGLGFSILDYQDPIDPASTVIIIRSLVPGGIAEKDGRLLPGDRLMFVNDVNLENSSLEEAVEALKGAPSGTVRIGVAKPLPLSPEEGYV

T9: MPP7, Q5T2T1
T9 sequence (Q5T2T1 134-230, limits assumed, looked up): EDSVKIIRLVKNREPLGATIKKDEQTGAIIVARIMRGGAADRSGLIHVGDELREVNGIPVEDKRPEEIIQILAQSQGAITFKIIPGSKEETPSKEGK

T10: PDZD2_2, O15018
T10 sequence (O15018 329-429, limits assumed, looked up): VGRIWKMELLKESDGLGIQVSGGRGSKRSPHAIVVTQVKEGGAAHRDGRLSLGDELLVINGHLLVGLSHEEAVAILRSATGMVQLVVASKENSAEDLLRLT

T11: PDZRN3_1, Q9UPQ7
T11 sequence (Q9UPQ7 244-349, limits assumed, looked up): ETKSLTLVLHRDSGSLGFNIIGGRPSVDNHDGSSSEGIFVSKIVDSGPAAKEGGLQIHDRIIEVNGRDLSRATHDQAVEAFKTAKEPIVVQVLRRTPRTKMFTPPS

T12: SNTA1, Q13424
T12 sequence (Q13424 82-180, limits assumed, looked up): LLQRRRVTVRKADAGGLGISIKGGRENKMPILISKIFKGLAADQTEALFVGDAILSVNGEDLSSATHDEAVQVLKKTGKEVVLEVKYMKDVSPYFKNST

T13: TX1BP3, O14907
T13 sequence (O14907 10-122, limits assumed, looked up): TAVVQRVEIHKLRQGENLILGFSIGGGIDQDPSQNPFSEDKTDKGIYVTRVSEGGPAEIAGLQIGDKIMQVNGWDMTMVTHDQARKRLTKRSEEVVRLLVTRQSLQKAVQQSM

B1: KIRREL2, Q6UWL6 (peptide)
chain: PSHPRLQTHV

target: T1, ARHGAP21, Q5T5U3; test: holdup assay; set-up: key: below the threshold = too weak to quantify, mostly under pKd 3.1 to 4; conditions: plain residues with an end cap or a label only (N-terminal biotin on a linker: ado-ado)

Row | pKd | Binder
1 | below the threshold | B1

target: T2, DFNB31_2, Q9P202; test: holdup assay; set-up: key: below the threshold = too weak to quantify, mostly under pKd 3.1 to 4; conditions: plain residues with an end cap or a label only (N-terminal biotin on a linker: ado-ado)

Row | pKd | Binder
2 | below the threshold | B1

target: T3, DFNB31_3, Q9P202; test: holdup assay; set-up: key: below the threshold = too weak to quantify, mostly under pKd 3.1 to 4; conditions: plain residues with an end cap or a label only (N-terminal biotin on a linker: ado-ado)

Row | pKd | Binder
3 | 4 | B1

target: T4, DLG3_2, Q92796; test: holdup assay; set-up: key: below the threshold = too weak to quantify, mostly under pKd 3.1 to 4; conditions: plain residues with an end cap or a label only (N-terminal biotin on a linker: ado-ado)

Row | pKd | Binder
4 | 4.6 | B1

target: FRMPD3, Q5JV73; test: holdup assay; set-up: key: below the threshold = too weak to quantify, mostly under pKd 3.1 to 4; conditions: plain residues with an end cap or a label only (N-terminal biotin on a linker: ado-ado)
Sequence (Q5JV73 12-100): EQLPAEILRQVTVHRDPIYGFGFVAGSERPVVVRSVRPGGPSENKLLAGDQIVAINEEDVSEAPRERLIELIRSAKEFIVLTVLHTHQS

Row | pKd | Binder
5 | below the threshold | B1

target: T5, GRIP1_4, Q9Y3R0; test: holdup assay; set-up: key: below the threshold = too weak to quantify, mostly under pKd 3.1 to 4; conditions: plain residues with an end cap or a label only (N-terminal biotin on a linker: ado-ado)

Row | pKd | Binder
6 | below the threshold | B1

target: GRIP2_6, Q9C0E4; test: holdup assay; set-up: key: below the threshold = too weak to quantify, mostly under pKd 3.1 to 4; conditions: plain residues with an end cap or a label only (N-terminal biotin on a linker: ado-ado)
Sequence (Q9C0E4 648-740): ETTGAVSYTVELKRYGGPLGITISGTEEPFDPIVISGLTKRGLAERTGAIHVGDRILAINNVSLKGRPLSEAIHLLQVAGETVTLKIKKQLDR

Row | pKd | Binder
7 | below the threshold | B1

target: HTRA1, Q92743; test: holdup assay; set-up: key: below the threshold = too weak to quantify, mostly under pKd 3.1 to 4; conditions: plain residues with an end cap or a label only (N-terminal biotin on a linker: ado-ado)
Sequence (Q92743 360-477): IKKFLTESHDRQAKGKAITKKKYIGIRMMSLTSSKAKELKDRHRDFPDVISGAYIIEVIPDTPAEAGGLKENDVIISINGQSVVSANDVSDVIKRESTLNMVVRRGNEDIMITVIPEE

Row | pKd | Binder
8 | below the threshold | B1

target: IL16_1, Q14005; test: holdup assay; set-up: key: below the threshold = too weak to quantify, mostly under pKd 3.1 to 4; conditions: plain residues with an end cap or a label only (N-terminal biotin on a linker: ado-ado)
Sequence (Q14005 210-306): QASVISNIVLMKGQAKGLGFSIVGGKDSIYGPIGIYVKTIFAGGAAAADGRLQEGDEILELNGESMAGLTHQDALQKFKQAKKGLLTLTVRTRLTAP

Row | pKd | Binder
9 | below the threshold | B1

target: Inadl_3, Q8NI35; test: holdup assay; set-up: key: below the threshold = too weak to quantify, mostly under pKd 3.1 to 4; conditions: plain residues with an end cap or a label only (N-terminal biotin on a linker: ado-ado)
Sequence (Q8NI35 359-469): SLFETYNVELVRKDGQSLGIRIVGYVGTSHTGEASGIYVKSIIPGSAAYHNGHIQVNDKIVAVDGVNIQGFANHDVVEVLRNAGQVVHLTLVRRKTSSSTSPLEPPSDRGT

Row | pKd | Binder
10 | below the threshold | B1

target: Inadl_4, Q8NI35; test: holdup assay; set-up: key: below the threshold = too weak to quantify, mostly under pKd 3.1 to 4; conditions: plain residues with an end cap or a label only (N-terminal biotin on a linker: ado-ado)
Sequence (Q8NI35 547-651): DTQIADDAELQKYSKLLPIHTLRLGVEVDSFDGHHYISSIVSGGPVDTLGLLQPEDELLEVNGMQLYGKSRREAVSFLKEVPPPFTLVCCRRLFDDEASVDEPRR

Row | pKd | Binder
11 | below the threshold | B1

target: LIMK2, P53671; test: holdup assay; set-up: key: below the threshold = too weak to quantify, mostly under pKd 3.1 to 4; conditions: plain residues with an end cap or a label only (N-terminal biotin on a linker: ado-ado)
Sequence (P53671 143-248): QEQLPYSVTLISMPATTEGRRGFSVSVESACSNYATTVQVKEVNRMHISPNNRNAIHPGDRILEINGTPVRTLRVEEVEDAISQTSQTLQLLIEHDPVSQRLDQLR

Row | pKd | Binder
12 | below the threshold | B1

target: MAGI2_2, Q86UL8; test: holdup assay; set-up: key: below the threshold = too weak to quantify, mostly under pKd 3.1 to 4; conditions: plain residues with an end cap or a label only (N-terminal biotin on a linker: ado-ado)
Sequence (Q86UL8 410-522): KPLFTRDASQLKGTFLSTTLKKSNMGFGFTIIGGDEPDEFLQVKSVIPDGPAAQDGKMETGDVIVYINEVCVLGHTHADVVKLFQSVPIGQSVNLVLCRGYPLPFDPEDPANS

Row | pKd | Binder
13 | 4.82 | B1

target: MAGI3_2, Q5TCQ9; test: holdup assay; set-up: key: below the threshold = too weak to quantify, mostly under pKd 3.1 to 4; conditions: plain residues with an end cap or a label only (N-terminal biotin on a linker: ado-ado)
Sequence (Q5TCQ9 398-503): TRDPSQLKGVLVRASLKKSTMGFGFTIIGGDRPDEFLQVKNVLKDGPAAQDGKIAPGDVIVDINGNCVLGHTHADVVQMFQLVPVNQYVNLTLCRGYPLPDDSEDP

Row | pKd | Binder
14 | 5.1 | B1

target: T6, MPDZ_10, O75970; test: holdup assay; set-up: key: below the threshold = too weak to quantify, mostly under pKd 3.1 to 4; conditions: plain residues with an end cap or a label only (N-terminal biotin on a linker: ado-ado)

Row | pKd | Binder
15 | below the threshold | B1

target: T7, MPDZ_12, O75970; test: holdup assay; set-up: key: below the threshold = too weak to quantify, mostly under pKd 3.1 to 4; conditions: plain residues with an end cap or a label only (N-terminal biotin on a linker: ado-ado)

Row | pKd | Binder
16 | below the threshold | B1

target: T8, MPDZ_5, O75970; test: holdup assay; set-up: key: below the threshold = too weak to quantify, mostly under pKd 3.1 to 4; conditions: plain residues with an end cap or a label only (N-terminal biotin on a linker: ado-ado)

Row | pKd | Binder
17 | below the threshold | B1

target: T9, MPP7, Q5T2T1; test: holdup assay; set-up: key: below the threshold = too weak to quantify, mostly under pKd 3.1 to 4; conditions: plain residues with an end cap or a label only (N-terminal biotin on a linker: ado-ado)

Row | pKd | Binder
18 | below the threshold | B1

target: PDLIM1, O00151; test: holdup assay; set-up: key: below the threshold = too weak to quantify, mostly under pKd 3.1 to 4; conditions: plain residues with an end cap or a label only (N-terminal biotin on a linker: ado-ado)
Sequence (O00151 1-87): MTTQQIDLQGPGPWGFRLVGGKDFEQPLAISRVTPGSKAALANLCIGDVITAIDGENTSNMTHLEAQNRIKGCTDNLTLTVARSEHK

Row | pKd | Binder
19 | below the threshold | B1

target: T10, PDZD2_2, O15018; test: holdup assay; set-up: key: below the threshold = too weak to quantify, mostly under pKd 3.1 to 4; conditions: plain residues with an end cap or a label only (N-terminal biotin on a linker: ado-ado)

Row | pKd | Binder
20 | 4.23 | B1

target: T11, PDZRN3_1, Q9UPQ7; test: holdup assay; set-up: key: below the threshold = too weak to quantify, mostly under pKd 3.1 to 4; conditions: plain residues with an end cap or a label only (N-terminal biotin on a linker: ado-ado)

Row | pKd | Binder
21 | below the threshold | B1

target: T12, SNTA1, Q13424; test: holdup assay; set-up: key: below the threshold = too weak to quantify, mostly under pKd 3.1 to 4; conditions: plain residues with an end cap or a label only (N-terminal biotin on a linker: ado-ado)

Row | pKd | Binder
22 | below the threshold | B1

target: TJP1_2, Q07157; test: holdup assay; set-up: key: below the threshold = too weak to quantify, mostly under pKd 3.1 to 4; conditions: plain residues with an end cap or a label only (N-terminal biotin on a linker: ado-ado)
Sequence (Q07157 181-274): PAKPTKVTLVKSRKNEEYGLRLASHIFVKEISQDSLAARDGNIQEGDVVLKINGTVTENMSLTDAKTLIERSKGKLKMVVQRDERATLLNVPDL

Row | pKd | Binder
23 | below the threshold | B1

target: T13, TX1BP3, O14907; test: holdup assay; set-up: key: below the threshold = too weak to quantify, mostly under pKd 3.1 to 4; conditions: plain residues with an end cap or a label only (N-terminal biotin on a linker: ado-ado)

Row | pKd | Binder
24 | 4.64 | B1
